Laboratory results reported in patent US20110020842.

Experiments:
[1] = target: T1, consensus peptide substrate eEF2p (Ac-RKKYKFNEDTERRRFL)
T1 chain: RKKYKFNEDTERRRFL

[2] = target: arrayed peptide library (198 peptide mixtures with a central fixed Ser/Thr phosphorylation site, degenerate flanking positions and a carboxy-terminal biotin tag)

B1: eEF2 kinase (Elongation Factor 2 Kinase) (protein)
chain: MADEDLIFRLEGVDGGQSPRAGHDGDSDGDSDDEEGYFICPITDDPSSNQNVNSKVNKYYSNLTKSERYSSSGSPANSFHFKEAWKHAIQKAKHMPDPWAEFHLEDIATERATRHRYNAVTGEWLDDEVLIKMASQPFGRGAMRECFRTKKLSNFLHAQQWKGASNYVAKRYIEPVDRDVYFEDVRLQMEAKLWGEEYNRHKPPKQVDIMQMCIIELKDRPGKPLFHLEHYIEGKYIKYNSNSGFVRDDNIRLTPQAFSHFTFERSGHQLIVVDIQGVGDLYTDPQIHTETGTDFGDGNLGVRGMALFFYSHACNRICESMGLAPFDLSPRERDAVNQNTKLLQSAKTILRGTEEKCGSPQVRTLSGSRPPLLRPLSENSGDENMSDVTFDSLPSSPSSATPHSQKLDHLHWPVFSDLDNMASRDHDHLDNHRESENSGDSGYPSEKRGELDDPEPREHGHSYSNRKYESDEDSLGSSGRVCVEKWNLLNSSRLHLPRASAVALEVQRLNALDLEKKIGKSILGKVHLAMVRYHEGGRFCEKGEEWDQESAVFHLEHAANLGELEAIVGLGLMYSQLPHHILADVSLKETEENKTKGFDYLLKAAEAGDRQSMILVARAFDSGQNLSPDRCQDWLEALHWYNTALEMTDCDEGGEYDGMQDEPRYMMLAREAEMLFTGGYGLEKDPQRSGDLYTQAAEAAMEAMKGRLANQYYQKAEEAWAQMEE
Question: For B1, which “fold increase in activity as compared to peptide MH-U” value [1] is on record?
Answer: The value was 30 to 35 fold increase in activity.

Question: And the “phosphorylation at a single substrate concentration (100 µM)” value [1]?
Answer: Its value is “both peptides are efficiently phosphorylated by their respective kinases”.

Question: What about the “phosphorylation of peptide library (radiolabel incorporation)” value [2] of the same protein?
Answer: Its value is “The kinase was able to efficiently phosphorylate peptides within the library”.
